Experiments:
[1] = biological target: human PDL1 expressed on cells (human, UniProt Q9NZQ7 19-290); assay: cell-based or functional assay
[2] = biological target: T1, human PDL1 (recombinant, soluble) (human, UniProt Q9NZQ7 19-238); assay: PDL1/PD-1 competition ELISA with human serum albumin
T1 construct: also called hPDL1; hPD-L1
Experimental: (§1) ELISA microplates coated overnight at 4° C. with 4 μg/ml human PD-1 were washed three times with 450 μl wash buffer per well. Plates were blocked for 1 hour at room temperature by adding 300 μl of PBS with 1% BSA and 0.2% tween (dilution buffer) to each well. […] The mixtures were pre-incubated for 1 hour at room temperature under gentle agitation on a rotating mixer (21 rpm) and added to the microplates after 3 wash cycles with 450 μl wash buffer per well. Plates were incubated for 1.5 hours at room temperature under gentle agitation, then 10 ng/ml streptavidin-polyHRP40 was added to each microplate well after three washes with 450 μl of wash buffer per well. After 1 h incubation at RT, plates were washed three times with 450 μl wash buffer and TMB substrate solution was added. The enzymatic reaction was stopped after 6 minutes by addition of 1 M HCl and absorbance was measured at 450 nm using 690 nm as a reference wavelength. For calculation of IC₅₀ values, a four-parameter logistic (4PL) curve fit was performed in Graph Pad Prism using reference subtracted values.

[3] = biological target: T1, human PDL1 (recombinant, soluble); assay: PDL1/PD-1 competition ELISA; PD-1 coated, biotinylated PDL1 1 ng/ml
Experimental: as §1

[4] = biological target: T1, human PDL1 (recombinant, soluble); assay: PDL1/B7-1 competition ELISA; B7-1 coated, biotinylated PDL1 40 ng/ml
Experimental: as §1, with “B7-1” for “PD-1”

[5] = biological target: T1, human PDL1 (recombinant, soluble); assay: PD-1/PDL1 competition ELISA in the presence of 1 mg/ml human serum albumin: biotinylated human PDL1 pre-incubated with the inhibitor, then binding to plate-coated human PD-1; blocked ligand PD-1
Experimental: as §1

NF-AT potency assay IC50 (with HSA) [1]: 0.665 µg/mL
fold higher IC50 in presence of human serum albumin [2]: ~2 fold
IC50 [3]: 0.00861 µg/mL
IC50 [4]: 0.0163 µg/mL
IC50 (read off the curve) [5]: ~0.02 µg/mL
B1: PRO1057 (38_02_A04 sc01 scDb-i/33-03-G02 sc01 scDb-o/mxr HSA (23-13-A01-sc03, sk17sh4)) (other)
chain: DIQMTQSPSSLSASVGDRVTITCQASQSINDYLAWYQQKPGKAPKLLIYKASTLASGVPSRFSGSGSGTDFTLTISSLQPEDFATYYCQQGYIITDIDNVFGTGTKVTVLGGGGGSQVQLQESGPGLVKPSETLSLTCKVSGFSFSNSYWICWIRQPPGKGLEWIGCTFVGSSDSTYYANWAKGRVTISVDSSKNQFSLKLSSVTAADTAVYYCARHPSDAVYGYANNLWGQGTLVTVSSGGGGSGGGGSGGGGSGGGGSIQMTQSPSSLSASVGDRVTITCQASQSINNVLAWYQQKPGKAPKLLIYRASTLASGVPSRFSGSGSGTDFTLTISSLQPEDFATYYCQSSYGNYGDFGTGTKVTVLGGGGGSQVQLQESGPGLVKPSETLSLTCKVSGFSFSSGYDMCWIRQPPGKGLEWIGCVVAGSVDITYYASWAKGRVTISVDSSKNQFSLKLSSVTAADTAVYYCARKDAYSDAFNLWGQGTLVTVSSGGGGSGGGGSVVMTQSPSSLSASVGDRVTITCQASQIISSRSAWYQQKPGQPPKLLIYQASKLASGVPSRFSGSGSGTDFTLTISSLQPEDFATYYCQCTYIDSNFGAFGGGTKLTVLGGGGGSGGGGSGGGGSGGGGSEVQLVESGGGLVQPGGSLRLSCAASGFSFSSSYWICWVRQAPGKGLEWVGCVFTGDGTTYYASWAKGRFTISRDNSKNTVYLQMNSLRAEDTATYFCARPVSVYYYGMDLWGQGTLVTVSS
